Source: patent US20190338048A1
Like-named read-outs stand apart in the source and are kept apart here.

Legend:
[1] = target: Pertuzumab kappa light chain S131K_S176K; experiment: LCCA
[2] = target: Pertuzumab kappa light chain S131K_L135W_S176K; experiment: LCCA
[3] = target: Pertuzumab kappa light chain S131K_S176K; experiment: LCCA; remark: listed apart in the source
[4] = target: Pertuzumab kappa light chain S131K_S176K; experiment: LCCA; remark: listed apart in the source
[5] = target: Pertuzumab kappa light chain S131K_S176K; experiment: LCCA; remark: listed apart in the source
[6] = target: Pertuzumab kappa light chain S121K_S131K_S176K; experiment: LCCA
[7] = target: Pertuzumab kappa light chain S121K_S131K_S176K; experiment: LCCA; remark: listed apart in the source
[8] = target: Pertuzumab kappa light chain S121K_V133G_S176D; experiment: LCCA
[9] = target: CAT-2200 lambda light chain S122D_Y178K; experiment: LCCA
[10] = target: Pertuzumab kappa light chain Q124E_V133G_S176D_T178E_T180E; experiment: LCCA
[11] = target: Pertuzumab kappa light chain Q124E_V133G_S176D; experiment: LCCA
[12] = target: CAT-2200 lambda light chain Y178K; experiment: LCCA
[13] = target: Pertuzumab kappa light chain Q124E_V133G_S176D_T180E; experiment: LCCA
[14] = target: Pertuzumab kappa light chain Q124E_V133G_S176D; experiment: LCCA; remark: listed apart in the source
[15] = target: Pertuzumab kappa light chain Q124E_V133G_S176D_T180E; experiment: LCCA; remark: listed apart in the source
[16] = target: Pertuzumab kappa light chain V133G_L135A_S176D_T180E; experiment: LCCA, SPR tag read-out
[17] = target: Pertuzumab kappa light chain S121K_V133G_S176D_T180E; experiment: LCCA, SPR tag read-out
[18] = target: Pertuzumab kappa light chain S121K_V133G_S176D_T180E; experiment: LCCA, SPR tag read-out; remark: listed apart in the source
[19] = target: CAT-2200 lambda light chain S122D_Y178K; experiment: LCCA, SPR tag read-out
[20] = target: Pertuzumab kappa light chain S121K_V133G_S176D_T180E; experiment: LCCA, SPR tag read-out; remark: listed apart in the source
[21] = target: Pertuzumab kappa light chain Q124R_T178R; experiment: LCCA, SPR tag read-out
[22] = target: Pertuzumab kappa light chain Q124R_T178R; experiment: LCCA, SPR tag read-out; remark: listed apart in the source
[23] = target: Pertuzumab kappa light chain Q124R_T178R; experiment: LCCA, SPR tag read-out; remark: listed apart in the source
[24] = target: Pertuzumab kappa light chain Q124R_L135W_T178R; experiment: LCCA, SPR tag read-out
[25] = target: Pertuzumab kappa light chain Q124R_L135W_Q160K_T178R; experiment: LCCA, SPR tag read-out
[26] = target: Pertuzumab kappa light chain Q124R_Q160R_T178R; experiment: LCCA, SPR tag read-out
[27] = target: Pertuzumab kappa light chain Q124R_T178R; experiment: LCCA, SPR tag read-out; remark: listed apart in the source
[28] = target: Pertuzumab kappa light chain Q124R_L135W_T178R; experiment: LCCA, SPR tag read-out; remark: listed apart in the source
[29] = target: Pertuzumab kappa light chain Q124R_L135W_T178R; experiment: LCCA, SPR tag read-out; remark: listed apart in the source
[30] = target: Pertuzumab kappa light chain Q124R_T178R; experiment: LCCA, SPR tag read-out; remark: listed apart in the source
[31] = target: Pertuzumab kappa light chain Q124R_L135W_Q160K_T178R; experiment: LCCA
[32] = target: Pertuzumab kappa light chain Q124R_Q160R_T178R; experiment: LCCA, SPR tag read-out; remark: listed apart in the source
[33] = target: CAT-2200 lambda light chain S122D_K129T_S180E; experiment: LCCA
[34] = target: Pertuzumab kappa light chain S121K_Q124R_T178R; experiment: LCCA, SPR tag read-out
[35] = target: CAT-2200 lambda light chain S122D_K129T_S176E_Y178E; experiment: LCCA, SPR tag read-out
[36] = target: Pertuzumab kappa light chain S121K_Q124R_T178R; experiment: LCCA, SPR tag read-out; remark: listed apart in the source
[37] = target: CAT-2200 lambda light chain S122D_K129T_S176D_Y178T; experiment: LCCA, SPR tag read-out
[38] = target: CAT-2200 lambda light chain S122D_K129T_V133D; experiment: LCCA, SPR tag read-out
[39] = target: Pertuzumab kappa light chain S121K_Q124R_T178R; experiment: LCCA, SPR tag read-out; remark: listed apart in the source
[40] = target: CAT-2200 lambda light chain S122D_K129T_S180E; experiment: LCCA; remark: listed apart in the source
[41] = target: Pertuzumab kappa light chain S121K_Q124R_T178R; experiment: LCCA
[42] = target: Pertuzumab kappa light chain S121K_Q124R_Q160K_T178R; experiment: LCCA
[43] = target: Pertuzumab kappa light chain Q124R_L135A_T178R; experiment: LCCA, SPR tag read-out
[44] = target: CAT-2200 lambda light chain T116F_K129T_V133D_S176F; experiment: LCCA, SPR tag read-out
[45] = target: Pertuzumab kappa light chain Q124R_L135A_Q160K_T178R; experiment: LCCA
[46] = target: Pertuzumab kappa light chain Q124K_L135A_T178R; experiment: LCCA
[47] = target: CAT-2200 lambda light chain E124Q_T131R; experiment: LCCA, SPR tag read-out
[48] = target: CAT-2200 lambda light chain E124Q_T131R; experiment: LCCA, SPR
[49] = target: Pertuzumab kappa light chain Q124E_V133D; experiment: LCCA, SPR
[50] = target: CAT-2200 lambda light chain E124Q_T131R; experiment: LCCA, SPR tag read-out; remark: listed apart in the source
[51] = target: Pertuzumab kappa light chain Q124E_V133D_L135W; experiment: LCCA, SPR tag read-out
[52] = target: Pertuzumab kappa light chain Q124E_V133D_T180D; experiment: LCCA, SPR tag read-out
[53] = target: Pertuzumab kappa light chain Q124E_V133D_L135W_T180D; experiment: LCCA, SPR tag read-out
[54] = target: CAT-2200 lambda light chain S122D_E124Q_T131R; experiment: LCCA, SPR tag read-out
[55] = target: Pertuzumab kappa light chain S121K_Q124E_V133D_T180D; experiment: LCCA, SPR tag read-out
[56] = target: Pertuzumab kappa light chain S121K_Q124E_V133D; experiment: LCCA, SPR tag read-out
[57] = target: Pertuzumab kappa light chain Q124E_V133D_S176D_T178D; experiment: LCCA, SPR tag read-out
[58] = target: Pertuzumab kappa light chain Q124E_V133D_S176D_T178E; experiment: LCCA, SPR tag read-out
[59] = target: Pertuzumab kappa light chain Q124E_V133D_T178E; experiment: LCCA
[60] = target: Pertuzumab kappa light chain Q124E_V133D_S176D_T178E; experiment: LCCA
[61] = target: Pertuzumab kappa light chain Q124E_V133D_T178E; experiment: LCCA; remark: listed apart in the source
[62] = target: Pertuzumab kappa light chain Q124E_V133D_S176D_T178E; experiment: LCCA; remark: listed apart in the source
[63] = target: CAT-2200 lambda light chain S122D_E124Q_T131R; experiment: LCCA, SPR tag read-out; remark: listed apart in the source
[64] = target: Pertuzumab kappa light chain S121K_V133I_S176D_T178E; experiment: LCCA, SPR tag read-out
[65] = target: Pertuzumab kappa light chain S121K_S131D_V133G_T178F; experiment: LCCA, SPR tag read-out
[66] = target: Pertuzumab kappa light chain S121K_S176E_T178E; experiment: LCCA
[67] = target: Pertuzumab kappa light chain V133I_L135A_S176D_T178E; experiment: LCCA, SPR tag read-out

Pertuzumab Fab heavy chain K145T_S186E gave an H2L2:H2L1 median scalar value [1] of 0.53 ln, an H2L2:H2L1 median scalar value [2] of -0.33 ln and an H2L2:H2L1 median scalar value [3] of 0.9 ln. The H2L2:H2L1 median scalar value [4] was 2.25 ln and the H2L2:H2L1 median scalar value [5] was 1.58 ln.
Work on “Pertuzumab Fab heavy chain K145T_S186E_K228D” yielded an H2L2:H2L1 median scalar value [6] of 1.21 ln and an H2L2:H2L1 median scalar value [7] of 0.33 ln.
Substance Pertuzumab Fab heavy chain L124R_K228D has an H2L2:H2L1 median scalar value [8] of 1.97 ln, an H2L2:H2L1 normalized median ratio [8] of 67% and an H2L2:H2L1 normalized median ratio [9] of 33%.
In the case of Pertuzumab Fab heavy chain L124R_L143K, the H2L2:H2L1 median scalar value [10] is reported as 0.07 ln, the H2L2:H2L1 normalized median ratio [10] is reported as 51% and the H2L2:H2L1 median scalar value [11] is reported as 0.45 ln. It also gave an H2L2:H2L1 normalized median ratio [12] of 49%, an H2L2:H2L1 median scalar value [13] of 0.35 ln and an H2L2:H2L1 median scalar value [14] of 0.55 ln. It also gave an H2L2:H2L1 median scalar value [15] of 0.25 ln.
For “Pertuzumab Fab heavy chain L124R_S186K_V190F”, the H2L2:H2L1 median scalar value [16] was -0.44 ln(ratio).
With “Pertuzumab Fab heavy chain L124R_S186R_K228D” the H2L2:H2L1 median scalar value [17] was -0.52 ln(ratio), the H2L2:H2L1 median scalar value [18] was 1.83 ln(ratio) and the H2L2:H2L1 normalized median ratio [18] was 66%. For the same substance, the H2L2:H2L1 normalized median ratio [19] was 34% and the H2L2:H2L1 median scalar value [20] was -0.49 ln(ratio).
With “Pertuzumab Fab heavy chain L143E_K145T_Q179E” the H2L2:H2L1 median scalar value [21] was 2.74 ln(ratio), the H2L2:H2L1 median scalar value [22] was 3.63 ln(ratio) and the H2L2:H2L1 median scalar value [23] was 3.01 ln(ratio). The H2L2:H2L1 median scalar value [24] was 2.54 ln(ratio), the H2L2:H2L1 median scalar value [25] was 2.02 ln(ratio) and the H2L2:H2L1 median scalar value [26] was 2.79 ln(ratio). For the same substance, the H2L2:H2L1 median scalar value [27] was 3.52 ln(ratio), the H2L2:H2L1 median scalar value [28] was 2.64 ln(ratio) and the H2L2:H2L1 median scalar value [29] was 2.68 ln(ratio). For the same substance, the H2L2:H2L1 median scalar value [30] was 3.1 ln(ratio), the H2L2:H2L1 median scalar value [31] was 0.77 ln and the H2L2:H2L1 median scalar value [32] was 2.58 ln(ratio).
“Pertuzumab Fab heavy chain L143E_K145T_Q179E_K228D” was tested, and the H2L2:H2L1 normalized median ratio [33] was 25%, the H2L2:H2L1 median scalar value [34] was 1.1 ln(ratio) and the H2L2:H2L1 normalized median ratio [34] was 66%. For the same substance, the H2L2:H2L1 normalized median ratio [35] was 5%, the H2L2:H2L1 median scalar value [36] was 3.5 ln(ratio) and the H2L2:H2L1 normalized median ratio [36] was 95%. The H2L2:H2L1 normalized median ratio [37] was 8%, the H2L2:H2L1 normalized median ratio [38] was 34% and the H2L2:H2L1 median scalar value [39] was 2.56 ln(ratio). The H2L2:H2L1 normalized median ratio [39] was 92%, the H2L2:H2L1 normalized median ratio [40] was 33% and the H2L2:H2L1 median scalar value [41] was 0.72 ln. It also gave an H2L2:H2L1 normalized median ratio [41] of 67%, an H2L2:H2L1 median scalar value [42] of 1.15 ln and an H2L2:H2L1 normalized median ratio [42] of 75%.
“Pertuzumab Fab heavy chain L143E_K145T_Q179E_V190F” was tested, and the H2L2:H2L1 median scalar value [43] was 0.99 ln(ratio), the H2L2:H2L1 normalized median ratio [43] was 73% and the H2L2:H2L1 normalized median ratio [44] was 27%. The H2L2:H2L1 median scalar value [45] was -0.29 ln and the H2L2:H2L1 median scalar value [46] was -0.51 ln.
In the case of Pertuzumab Fab heavy chain L143R, the H2L2:H2L1 normalized median ratio [47] is reported as 11%, the H2L2:H2L1 normalized median ratio [48] is reported as 4% and the H2L2:H2L1 normalized median ratio [49] is reported as 96%. For the same substance, the H2L2:H2L1 normalized median scalar value ln(r1/f1) [49] was 3.06, the H2L2:H2L1 normalized median ratio [50] was 15% and the H2L2:H2L1 median scalar value [51] was 2.13 ln(ratio). The H2L2:H2L1 normalized median ratio [51] was 89%, the H2L2:H2L1 median scalar value [52] was 1.72 ln(ratio) and the H2L2:H2L1 normalized median ratio [52] was 85%. The H2L2:H2L1 median scalar value [53] was 0.87 ln(ratio).
In the case of Pertuzumab Fab heavy chain L143R_K228D, the H2L2:H2L1 normalized median ratio [54] is reported as 26%, the H2L2:H2L1 median scalar value [55] is reported as -0.2 ln(ratio) and the H2L2:H2L1 median scalar value [56] is reported as 1.08 ln(ratio). It also gave an H2L2:H2L1 normalized median ratio [56] of 74%.
With Pertuzumab Fab heavy chain L143R_S188K the H2L2:H2L1 median scalar value [57] was 0.02 ln(ratio), the H2L2:H2L1 median scalar value [58] was 1.21 ln(ratio) and the H2L2:H2L1 normalized median ratio [12] was 22%. It also gave an H2L2:H2L1 median scalar value [59] of 1.31 ln, an H2L2:H2L1 median scalar value [60] of -0.02 ln and an H2L2:H2L1 median scalar value [61] of 1.45 ln. For the same substance, the H2L2:H2L1 median scalar value [62] was 1.21 ln.
Pertuzumab Fab heavy chain S188K_K228D was tested, and the H2L2:H2L1 normalized median ratio [63] was 15%, the H2L2:H2L1 normalized median ratio [54] was 53% and the H2L2:H2L1 median scalar value [64] was 1.74 ln(ratio). For the same substance, the H2L2:H2L1 normalized median ratio [64] was 85%, the H2L2:H2L1 median scalar value [65] was -0.08 ln(ratio) and the H2L2:H2L1 normalized median ratio [65] was 47%. It also gave an H2L2:H2L1 median scalar value [66] of 2.83 ln.
For Pertuzumab Fab heavy chain S188K_V190F, the H2L2:H2L1 median scalar value [67] was 0.88 ln(ratio).
